Results on three molecules are retold here after patent publication US7179889B2, “Propionicin T1 polypeptide, a bacteriocin from Propionibacterium thoenii” (Provisage As, priority 2001, dated 2007).

Entries after “also recorded” stand apart in the source; their conditions may differ.

In series [1] the test system is Listeria monocytogenes. The note with it: food-borne pathogen; cited from earlier work.
The subject of series [2] is Lactobacillus sake NCDO 2714. Put plainly: overlay assay, zones of growth inhibition around producer colonies. The series is classed as cell-based. The note with it: bacteriocin. How it is done:
(§1) Screening for antimicrobial activity. Colonies of strains of propionibacteria were grown on agar plates for 72 to 120 hr. A lawn of 5 ml GM17 soft agar containing 500 μl of a fresh culture of the indicator organisms was then poured over the plates. After incubation for 24 to 48 hr at 30° C., the colonies were examined for zones of growth inhibition.

Series [3] has as its system Propionibacterium freudenreichii. In words: overlay assay, ten strains of Propionibacterium freudenreichii. The series is classed as cell-based. As to conditions: bacteriocin. How it is done: as §1
The nature of series [4]: stability of propionicin T1 (heat, acid, storage). Type of series: physicochemical. The procedure: (§2) Bacteriocin assay. Antimicrobial activity was determined by a microtiter plate assay (8). Each well of the microtiter plate contained 50 μl of twofold serial dilutions in SLB or GM17 of the bacteriocin samples, and 150 μl of a 100-fold-diluted fresh overnight culture of the indicator strain. The plates were incubated at 30° C. for 24 to 48 hr, and growth inhibition of the indicator organisms was measured spectrophotometrically at 620 nm with a microtiter plate reader. One bacteriocin unit (BU) was defined as the amount of bacteriocin that inhibited the growth of the indicator organism by 50% as compared with a control culture without bacteriocin.
Stability of propionicin T1. The stability of the peptide was tested, by exposing the bacteriocin (0.3 M NaCl eluate from the cation exchange column) to temperatures of 60° C. and 100° C. for 15 min and to pH 2.5 for one hour. […] Thus, propionicin T1 is heat stable and acid stable.

In series [5] the test system is P. acidipropionici ATCC 4965. In words: effect of the bacteriocin on the viability of sensitive cells. The series is classed as cell-based, Propionibacterium acidipropionici. The procedure:
Effect of the bacteriocin on the viability of sensitive cells. Partially purified bacteriocin from P. thoenii 419 eluted in 0.3 M NaCl from an ion-exchange column was added in variable amounts to a 48 hr culture of P. acidipropionici grown in GM17, diluted 100-fold. Optical density at 620 nm and viable count (by dilution and plate counting) were determined at time intervals.
The effect of propionicin T1 on viability of sensitive cells. Several experiments were performed to show the effect of propionicin T1 on the viability of the indicator cells. Cultures of P. acidipropionici ATCC 4965 were exposed to different amounts of partially purified propionicin T1. […] More than 99% of the cells were killed after 40 hr (FIG. 2A). The same result was also obtained using 100 or 4000 BU/ml. […] This increase was followed by a decrease in optical density (FIG. 2B).

Series [6] relates to all strains of Propionibacterium acidipropionici tested. In words: inhibition spectrum of propionicin T1. Type of series: cell-based. The procedure:
as §1, §2

For series [7], the system named is all strains of Propionibacterium jensenii tested. In words: inhibition spectrum of propionicin T1. The series is classed as cell-based. How it is done: as §1, §2
Series [8] relates to all strains of Propionibacterium thoenii tested. Put plainly: inhibition spectrum of propionicin T1. Type of series: cell-based. How it is done:
as §1, §2

Consider nisin, for which the “activity against Listeria monocytogenes” value in series [1] is “not very sensitive”.

For the molecule “pediocin PA1 (KYYGNGVTCGKHSCSVDWGKATTCIINNGAMAWATGGHQGNHKC; Bacteriocin pediocin PA-1; UniProt P29430 19-62, looked up) [antibacterial protein produced by Pediococcus acidilactici PAC1.0]”, in series [1], the “activity against Listeria monocytogenes” value was “very active”.

B1: Propionicin T1: new bacteriocin isolated from Propionibacterium thoenii 419 and LMG 2792; prebacteriocin SEQ ID NO:11, N-terminal sequence SEQ ID NO:9 (protein, listed as Propionibacterium thoenii)
chain: MKKTLLRSGTIALATAAAFGASLAAAPSAMAVPGGCTYTRSNRDVIGTCKTGSGQFRIRLDCNNAPDKTSVWAKPKVMVSVHCLVGQPRSISFETK
In the case of B1, in series [2], the “activity against Lactobacillus sake NCDO 2714” value is “active”. The “activity against Propionibacterium freudenreichii” value in series [3] is given as “no activity; also recorded: no strains of P. freudenreichii were inhibited”. Moreover, the “antimicrobial activity after heat exposure” value in series [4] (60° C. for 15 min, 0.3 M NaCl eluate from cation exchange column) is given as “No reduction in antimicrobial activity”; in series [4] (100° C. for 15 min, 0.3 M NaCl eluate from cation exchange column), “No reduction in antimicrobial activity”. For the same molecule, in series [4] (pH 2.5 for one hour, 0.3 M NaCl eluate from cation exchange column), the “antimicrobial activity after acid exposure” value is given as “No reduction in antimicrobial activity”. The “bacteriocin activity after storage at room temperature” value in series [4] (room temperature for 24 hr) is “no effect on the bacteriocin activity”. The “bacteriocin activity after freezing, thawing and storage” value in series [4] (storage at 4° C. or −20° C. up to six months) is “no effect on the bacteriocin activity”. Besides, in series [5] (100 or 1000 BU/ml culture, FIG. 2B), the “optical density (620 nm) of bacteriocin treated cultures” value is on record as “increase in the optical density for several hours after addition of bacteriocin”. The “cells killed, other bacteriocin amounts” value in series [5] (100 or 4000 BU/ml) is recorded as “same result”. Also, the viable count result in series [5] (after 4 hr, plate counting) is on record as “reduction in viable count”. In addition, in series [5] (after 40 hr, 1000 BU/ml culture, plate counting, partially purified), the cells killed entry is given as “More than 99%”. Further, the “mode of action on indicator cells” value in series [5] (plate counting) is “bactericidal effect; also recorded: slow bactericidal mode of action”. Also, the “activity against Propionibacterium acidipropionici” value in series [6] is listed as “active”. In series [7], the “activity against Propionibacterium jensenii” value is “active”. Also, in series [8], the “activity against Propionibacterium thoenii” value was “active”.
